# Test system: Escherichia coli TOP10
# Experiment: shrunken log2 fold change of peptide-encoding DNA abundance (4.5 h post-induction vs induction); higher = less antimicrobial activity (less host growth inhibition)
# Conditions: time post-induction: 4.5 h; library: site-saturation at positions 5, 18, 19, 20
# 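Further: peptides expressed intracellularly from a pBAD plasmid library in pooled LB shake-flask culture, induced with 0.3% L-arabinose, DNA abundance read by NGS, three biological replicates, DESeq2 with apeglm shrinkage.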
row,Sequence,shrunken log2 fold change
1,RRIRGRPPRLPRPRPRPIPPPRP,0.548
2,RRIRMRPPRLPRPRPRPKTTPRP,1.09
3,RRIRFRPPRLPRPRPRPQDGPRP,0.0293
4,RRIRWRPPRLPRPRPRPVSGPRP,-0.0172
5,RRIRERPPRLPRPRPRPICKPRP,-0.215
6,RRIRRRPPRLPRPRPRPWIDPRP,-0.0585
7,RRIRMRPPRLPRPRPRPITIPRP,-0.315
8,RRIRMRPPRLPRPRPRPVLKPRP,0.072
9,RRIRYRPPRLPRPRPRPRTTPRP,-0.011
10,RRIRLRPPRLPRPRPRPPVKPRP,-0.0732
11,RRIRVRPPRLPRPRPRPIQDPRP,-0.134
12,RRIRSRPPRLPRPRPRPWCSPRP,-0.296
13,RRIRLRPPRLPRPRPRPHPSPRP,-0.0856
14,RRIRSRPPRLPRPRPRPAPSPRP,1.24
15,RRIRIRPPRLPRPRPRPWVCPRP,0.0551
16,RRIRIRPPRLPRPRPRPSHQPRP,0.0866
17,RRIRERPPRLPRPRPRPNNQPRP,-0.59
18,RRIRLRPPRLPRPRPRPRKEPRP,0.325
19,RRIRYRPPRLPRPRPRPAGKPRP,-0.237
20,RRIRTRPPRLPRPRPRPYYAPRP,-0.489
21,RRIRVRPPRLPRPRPRPCCTPRP,-0.247
22,RRIRCRPPRLPRPRPRPARIPRP,0.0785

row,Sequence,shrunken log2 fold change
1,RRIRSRPPRLPRPRPRPDFQPRP,-0.0122
2,RRIRLRPPRLPRPRPRPISNPRP,-0.17
3,RRIRVRPPRLPRPRPRPNDLPRP,-0.31
4,RRIRTRPPRLPRPRPRPVECPRP,0.0216
5,RRIRIRPPRLPRPRPRPFSEPRP,-0.315
6,RRIRRRPPRLPRPRPRPGWIPRP,0.442
7,RRIRMRPPRLPRPRPRPQDKPRP,0.132
8,RRIRARPPRLPRPRPRPHLVPRP,0.0104
9,RRIRFRPPRLPRPRPRPICMPRP,-0.214
10,RRIRRRPPRLPRPRPRPMNVPRP,-0.156
11,RRIRARPPRLPRPRPRPHCEPRP,-0.113
12,RRIRPRPPRLPRPRPRPGYVPRP,-0.401
13,RRIRERPPRLPRPRPRPEDIPRP,-0.00136
14,RRIRIRPPRLPRPRPRPKMWPRP,1.25
15,RRIRQRPPRLPRPRPRPKETPRP,0.00762
16,RRIRSRPPRLPRPRPRPMRTPRP,0.654
17,RRIRHRPPRLPRPRPRPQNIPRP,-0.269
18,RRIRHRPPRLPRPRPRPVTWPRP,-0.268
19,RRIRCRPPRLPRPRPRPCRSPRP,0.118
20,RRIRCRPPRLPRPRPRPWIVPRP,-0.0435
21,RRIRPRPPRLPRPRPRPLRQPRP,0.0954
22,RRIRERPPRLPRPRPRPDWYPRP,-0.297

row,Sequence,shrunken log2 fold change
1,RRIRVRPPRLPRPRPRPECDPRP,0.247
2,RRIRKRPPRLPRPRPRPKTQPRP,0.422
3,RRIRYRPPRLPRPRPRPRCPPRP,-0.167
4,RRIRGRPPRLPRPRPRPIQHPRP,-0.0341
5,RRIRARPPRLPRPRPRPAIDPRP,0.387
6,RRIRARPPRLPRPRPRPQKLPRP,0.298
7,RRIRKRPPRLPRPRPRPAYYPRP,-0.0726
8,RRIRCRPPRLPRPRPRPLLHPRP,-0.319
9,RRIRYRPPRLPRPRPRPSCAPRP,-0.921
10,RRIRLRPPRLPRPRPRPNDMPRP,-0.258
11,RRIRPRPPRLPRPRPRPLQSPRP,0.0308
12,RRIRIRPPRLPRPRPRPQLKPRP,-0.456
13,RRIRHRPPRLPRPRPRPRTEPRP,0.218
14,RRIRVRPPRLPRPRPRPHWNPRP,-0.343
15,RRIRQRPPRLPRPRPRPSYQPRP,-0.635
16,RRIRNRPPRLPRPRPRPQEMPRP,-0.218
17,RRIRIRPPRLPRPRPRPHAYPRP,-0.549
18,RRIRGRPPRLPRPRPRPGGAPRP,1
19,RRIRHRPPRLPRPRPRPQVAPRP,0.0753
20,RRIRKRPPRLPRPRPRPQCQPRP,0.114
21,RRIRKRPPRLPRPRPRPYPKPRP,0.109
22,RRIRCRPPRLPRPRPRPSTLPRP,-0.686

row,Sequence,shrunken log2 fold change
1,RRIRPRPPRLPRPRPRPPIMPRP,-0.0982
2,RRIRARPPRLPRPRPRPQWQPRP,-0.00057
3,RRIRVRPPRLPRPRPRPWIQPRP,0.0857
4,RRIRCRPPRLPRPRPRPATHPRP,-0.0187
5,RRIRDRPPRLPRPRPRPFASPRP,-0.0205
6,RRIRGRPPRLPRPRPRPEGIPRP,-0.0235
7,RRIRSRPPRLPRPRPRPTNSPRP,-0.24
8,RRIRKRPPRLPRPRPRPSAMPRP,0.664
9,RRIRHRPPRLPRPRPRPMCVPRP,-0.192
10,RRIRWRPPRLPRPRPRPMNFPRP,-0.0285
11,RRIRCRPPRLPRPRPRPSLRPRP,-0.305
12,RRIRIRPPRLPRPRPRPDPMPRP,-0.205
13,RRIRRRPPRLPRPRPRPWAQPRP,0.882
14,RRIRDRPPRLPRPRPRPIHEPRP,-0.0852
15,RRIRSRPPRLPRPRPRPVTTPRP,-0.163
16,RRIRWRPPRLPRPRPRPKHNPRP,-0.152
17,RRIRMRPPRLPRPRPRPCGVPRP,0.714
18,RRIRPRPPRLPRPRPRPRWTPRP,0.399
19,RRIRVRPPRLPRPRPRPEYVPRP,-0.153
20,RRIRPRPPRLPRPRPRPSPCPRP,-0.0121
21,RRIRPRPPRLPRPRPRPYHLPRP,-1.07
22,RRIRRRPPRLPRPRPRPCLYPRP,-0.117

row,Sequence,shrunken log2 fold change
1,RRIRRRPPRLPRPRPRPEIEPRP,0.216
2,RRIRPRPPRLPRPRPRPSWPPRP,0.359
3,RRIRLRPPRLPRPRPRPRFNPRP,-0.223
4,RRIRLRPPRLPRPRPRPDEVPRP,0.256
5,RRIRARPPRLPRPRPRPHYFPRP,0.0061
6,RRIRVRPPRLPRPRPRPNEHPRP,-0.00876
7,RRIRARPPRLPRPRPRPNIYPRP,-0.418
8,RRIRFRPPRLPRPRPRPHIKPRP,-0.793
9,RRIRFRPPRLPRPRPRPLRLPRP,0.891
10,RRIRFRPPRLPRPRPRPYCSPRP,-0.206
11,RRIRVRPPRLPRPRPRPMVQPRP,0.159
12,RRIRERPPRLPRPRPRPMTAPRP,-0.0417
13,RRIRDRPPRLPRPRPRPAGDPRP,0.523
14,RRIRGRPPRLPRPRPRPQMPPRP,0.225
15,RRIRARPPRLPRPRPRPMYGPRP,0.22
16,RRIRPRPPRLPRPRPRPNPLPRP,0.149
17,RRIRTRPPRLPRPRPRPSKLPRP,-0.473
18,RRIRKRPPRLPRPRPRPICAPRP,0.363
19,RRIRIRPPRLPRPRPRPSESPRP,-0.159
20,RRIRHRPPRLPRPRPRPAWWPRP,0.157
21,RRIRPRPPRLPRPRPRPVCRPRP,-0.0794

# Source: the supplement of paper PMC9112550, “Optimization of the antimicrobial peptide Bac7 by deep mutational scanning” (BMC Biology, 2022)
